# Assay results as given in patent US20030118612A1 (MAXYGEN, published 2003).
# T1: human G-CSF receptor (human, UniProt Q99062 25-836)
# T1 sequence (looked up): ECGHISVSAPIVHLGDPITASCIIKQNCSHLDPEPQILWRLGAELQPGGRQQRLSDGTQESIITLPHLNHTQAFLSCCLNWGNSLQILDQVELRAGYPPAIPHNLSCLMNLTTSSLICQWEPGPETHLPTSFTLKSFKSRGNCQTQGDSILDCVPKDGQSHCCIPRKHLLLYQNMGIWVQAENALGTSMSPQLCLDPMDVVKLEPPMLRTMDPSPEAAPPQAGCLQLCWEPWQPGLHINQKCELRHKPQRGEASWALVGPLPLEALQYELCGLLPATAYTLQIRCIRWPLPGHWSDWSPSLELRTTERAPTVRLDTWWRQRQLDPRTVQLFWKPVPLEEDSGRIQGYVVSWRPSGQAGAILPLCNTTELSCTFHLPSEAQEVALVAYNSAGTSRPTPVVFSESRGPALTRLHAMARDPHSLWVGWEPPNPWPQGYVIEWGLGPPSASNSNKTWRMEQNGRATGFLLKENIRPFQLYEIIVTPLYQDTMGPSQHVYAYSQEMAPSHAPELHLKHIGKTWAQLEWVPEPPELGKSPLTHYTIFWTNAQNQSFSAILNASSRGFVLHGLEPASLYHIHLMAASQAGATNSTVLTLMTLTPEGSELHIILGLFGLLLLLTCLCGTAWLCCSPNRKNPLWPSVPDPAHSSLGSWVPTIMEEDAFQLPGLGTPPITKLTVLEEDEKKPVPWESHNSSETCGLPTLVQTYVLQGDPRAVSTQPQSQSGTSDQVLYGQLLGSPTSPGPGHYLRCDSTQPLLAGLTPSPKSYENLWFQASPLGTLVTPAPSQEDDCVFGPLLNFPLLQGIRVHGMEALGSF
# Target: T1, human G-CSF receptor
# Test: cell-based or functional assay
EC50 (% of hG-CSF) non-conjugated,EC50 (% of hG-CSF) conjugated to SPA-PEG 5000,Binder
20 % of hG-CSF,–,"G-CSF variant K16/34/40R Q158, non-conjugated (ligand) TPLGPASSLPQSFLLRCLEQVRKIQGDGAALQERLCATYRLCHPEELVLLGHSLGIPWAPLSSCPSQALQLAGCLSQLHSGLFLYQGLLQALEGISPELGPTLDTLQLDVADFATTIWQQMEELGMAPALQPTQGAMPAFASAFQRRAGGVLVASHLKSFLEVSYRVLRHLAQP"
20 % of hG-CSF,–,"G-CSF variant K16/34/40R S159K, non-conjugated (ligand) TPLGPASSLPQSFLLRCLEQVRKIQGDGAALQERLCATYRLCHPEELVLLGHSLGIPWAPLSSCPSQALQLAGCLSQLHSGLFLYQGLLQALEGISPELGPTLDTLQLDVADFATTIWQQMEELGMAPALQPTQGAMPAFASAFQRRAGGVLVASHLQKFLEVSYRVLRHLAQP"
25 % of hG-CSF,–,"G-CSF variant K16/34/40R Q90K Q120K, non-conjugated (ligand) TPLGPASSLPQSFLLRCLEQVRKIQGDGAALQERLCATYRLCHPEELVLLGHSLGIPWAPLSSCPSQALQLAGCLSQLHSGLFLYQGLLKALEGISPELGPTLDTLQLDVADFATTIWQKMEELGMAPALQPTQGAMPAFASAFQRRAGGVLVASHLQSFLEVSYRVLRHLAQP"
–,3 % of hG-CSF,"G-CSF variant K16/34/40R S159K conjugated to SPA-PEG 5000 (ligand, SPA-PEG 5000 conjugated to the available PEGylation sites) TPLGPASSLPQSFLLRCLEQVRKIQGDGAALQERLCATYRLCHPEELVLLGHSLGIPWAPLSSCPSQALQLAGCLSQLHSGLFLYQGLLQALEGISPELGPTLDTLQLDVADFATTIWQQMEELGMAPALQPTQGAMPAFASAFQRRAGGVLVASHLQKFLEVSYRVLRHLAQP"
45 % of hG-CSF,–,"G-CSF variant K16/34/40R Q90K S159K, non-conjugated (ligand) TPLGPASSLPQSFLLRCLEQVRKIQGDGAALQERLCATYRLCHPEELVLLGHSLGIPWAPLSSCPSQALQLAGCLSQLHSGLFLYQGLLKALEGISPELGPTLDTLQLDVADFATTIWQQMEELGMAPALQPTQGAMPAFASAFQRRAGGVLVASHLQKFLEVSYRVLRHLAQP"
–,20 % of hG-CSF,"G-CSF variant K16/34/40R T105K S159K conjugated to SPA-PEG 5000 (ligand, SPA-PEG 5000 conjugated to the available PEGylation sites) TPLGPASSLPQSFLLRCLEQVRKIQGDGAALQERLCATYRLCHPEELVLLGHSLGIPWAPLSSCPSQALQLAGCLSQLHSGLFLYQGLLQALEGISPELGPTLDKLQLDVADFATTIWQQMEELGMAPALQPTQGAMPAFASAFQRRAGGVLVASHLQKFLEVSYRVLRHLAQP"
25 % of hG-CSF,–,"G-CSF variant K16/34/40R Q70K Q120K, non-conjugated (ligand) TPLGPASSLPQSFLLRCLEQVRKIQGDGAALQERLCATYRLCHPEELVLLGHSLGIPWAPLSSCPSQALKLAGCLSQLHSGLFLYQGLLQALEGISPELGPTLDTLQLDVADFATTIWQKMEELGMAPALQPTQGAMPAFASAFQRRAGGVLVASHLQSFLEVSYRVLRHLAQP"
–,8 % of hG-CSF,"G-CSF variant K16/34/40R Q120K T133K conjugated to SPA-PEG 5000 (ligand, SPA-PEG 5000 conjugated to the available PEGylation sites) TPLGPASSLPQSFLLRCLEQVRKIQGDGAALQERLCATYRLCHPEELVLLGHSLGIPWAPLSSCPSQALQLAGCLSQLHSGLFLYQGLLQALEGISPELGPTLDTLQLDVADFATTIWQKMEELGMAPALQPKQGAMPAFASAFQRRAGGVLVASHLQSFLEVSYRVLRHLAQP"
10 % of hG-CSF,–,"G-CSF variant K16/34/40R Q120K S142K, non-conjugated (ligand) TPLGPASSLPQSFLLRCLEQVRKIQGDGAALQERLCATYRLCHPEELVLLGHSLGIPWAPLSSCPSQALQLAGCLSQLHSGLFLYQGLLQALEGISPELGPTLDTLQLDVADFATTIWQKMEELGMAPALQPTQGAMPAFAKAFQRRAGGVLVASHLQSFLEVSYRVLRHLAQP"
–,8 % of hG-CSF,"G-CSF variant K16/34/40R T105K Q120K conjugated to SPA-PEG 5000 (ligand, SPA-PEG 5000 conjugated to the available PEGylation sites) TPLGPASSLPQSFLLRCLEQVRKIQGDGAALQERLCATYRLCHPEELVLLGHSLGIPWAPLSSCPSQALQLAGCLSQLHSGLFLYQGLLQALEGISPELGPTLDKLQLDVADFATTIWQKMEELGMAPALQPTQGAMPAFASAFQRRAGGVLVASHLQSFLEVSYRVLRHLAQP"
–,1 % of hG-CSF,"G-CSF variant 16Q conjugated to SPA-PEG 5000 (ligand, SPA-PEG 5000 conjugated to the available PEGylation sites) TPLGPASSLPQSFLLQCLEQVRKIQGDGAALQEKLCATYKLCHPEELVLLGHSLGIPWAPLSSCPSQALQLAGCLSQLHSGLFLYQGLLQALEGISPELGPTLDTLQLDVADFATTIWQQMEELGMAPALQPTQGAMPAFASAFQRRAGGVLVASHLQSFLEVSYRVLRHLAQP"
40 % of hG-CSF,–,"G-CSF variant K16/34/40R Q90K T105K, non-conjugated (ligand) TPLGPASSLPQSFLLRCLEQVRKIQGDGAALQERLCATYRLCHPEELVLLGHSLGIPWAPLSSCPSQALQLAGCLSQLHSGLFLYQGLLKALEGISPELGPTLDKLQLDVADFATTIWQQMEELGMAPALQPTQGAMPAFASAFQRRAGGVLVASHLQSFLEVSYRVLRHLAQP"
10 % of hG-CSF,–,"G-CSF variant K16/34/40R Q70K Q90K T105K, non-conjugated (ligand) TPLGPASSLPQSFLLRCLEQVRKIQGDGAALQERLCATYRLCHPEELVLLGHSLGIPWAPLSSCPSQALKLAGCLSQLHSGLFLYQGLLKALEGISPELGPTLDKLQLDVADFATTIWQQMEELGMAPALQPTQGAMPAFASAFQRRAGGVLVASHLQSFLEVSYRVLRHLAQP"
40 % of hG-CSF,–,"G-CSF variant K16/34/40R T105K S159K, non-conjugated (ligand) TPLGPASSLPQSFLLRCLEQVRKIQGDGAALQERLCATYRLCHPEELVLLGHSLGIPWAPLSSCPSQALQLAGCLSQLHSGLFLYQGLLQALEGISPELGPTLDKLQLDVADFATTIWQQMEELGMAPALQPTQGAMPAFASAFQRRAGGVLVASHLQKFLEVSYRVLRHLAQP"
–,25 % of hG-CSF,"G-CSF variant K16/34/40R Q70K Q120K conjugated to SPA-PEG 5000 (ligand, SPA-PEG 5000 conjugated to the available PEGylation sites) TPLGPASSLPQSFLLRCLEQVRKIQGDGAALQERLCATYRLCHPEELVLLGHSLGIPWAPLSSCPSQALKLAGCLSQLHSGLFLYQGLLQALEGISPELGPTLDTLQLDVADFATTIWQKMEELGMAPALQPTQGAMPAFASAFQRRAGGVLVASHLQSFLEVSYRVLRHLAQP"
–,20 % of hG-CSF,"G-CSF variant K16/34/40R Q70K Q90K conjugated to SPA-PEG 5000 (ligand, SPA-PEG 5000 conjugated to the available PEGylation sites) TPLGPASSLPQSFLLRCLEQVRKIQGDGAALQERLCATYRLCHPEELVLLGHSLGIPWAPLSSCPSQALKLAGCLSQLHSGLFLYQGLLKALEGISPELGPTLDTLQLDVADFATTIWQQMEELGMAPALQPTQGAMPAFASAFQRRAGGVLVASHLQSFLEVSYRVLRHLAQP"
80 % of hG-CSF,–,"G-CSF variant 23Q, non-conjugated (ligand) TPLGPASSLPQSFLLKCLEQVRQIQGDGAALQEKLCATYKLCHPEELVLLGHSLGIPWAPLSSCPSQALQLAGCLSQLHSGLFLYQGLLQALEGISPELGPTLDTLQLDVADFATTIWQQMEELGMAPALQPTQGAMPAFASAFQRRAGGVLVASHLQSFLEVSYRVLRHLAQP"
–,2 % of hG-CSF,"G-CSF variant K16/34/40R Q120K S142K conjugated to SPA-PEG 5000 (ligand, SPA-PEG 5000 conjugated to the available PEGylation sites) TPLGPASSLPQSFLLRCLEQVRKIQGDGAALQERLCATYRLCHPEELVLLGHSLGIPWAPLSSCPSQALQLAGCLSQLHSGLFLYQGLLQALEGISPELGPTLDTLQLDVADFATTIWQKMEELGMAPALQPTQGAMPAFAKAFQRRAGGVLVASHLQSFLEVSYRVLRHLAQP"
20 % of hG-CSF,–,"G-CSF variant K16/34/40R T105K Q120K, non-conjugated (ligand) TPLGPASSLPQSFLLRCLEQVRKIQGDGAALQERLCATYRLCHPEELVLLGHSLGIPWAPLSSCPSQALQLAGCLSQLHSGLFLYQGLLQALEGISPELGPTLDKLQLDVADFATTIWQKMEELGMAPALQPTQGAMPAFASAFQRRAGGVLVASHLQSFLEVSYRVLRHLAQP"
–,10 % of hG-CSF,"G-CSF variant K16/34/40R Q90K T105K conjugated to SPA-PEG 5000 (ligand, SPA-PEG 5000 conjugated to the available PEGylation sites) TPLGPASSLPQSFLLRCLEQVRKIQGDGAALQERLCATYRLCHPEELVLLGHSLGIPWAPLSSCPSQALQLAGCLSQLHSGLFLYQGLLKALEGISPELGPTLDKLQLDVADFATTIWQQMEELGMAPALQPTQGAMPAFASAFQRRAGGVLVASHLQSFLEVSYRVLRHLAQP"
20 % of hG-CSF,–,"G-CSF variant K16/34/40R Q120K T133K, non-conjugated (ligand) TPLGPASSLPQSFLLRCLEQVRKIQGDGAALQERLCATYRLCHPEELVLLGHSLGIPWAPLSSCPSQALQLAGCLSQLHSGLFLYQGLLQALEGISPELGPTLDTLQLDVADFATTIWQKMEELGMAPALQPKQGAMPAFASAFQRRAGGVLVASHLQSFLEVSYRVLRHLAQP"
–,15 % of hG-CSF,"G-CSF variant K16/34/40R Q90K Q120K conjugated to SPA-PEG 5000 (ligand, SPA-PEG 5000 conjugated to the available PEGylation sites) TPLGPASSLPQSFLLRCLEQVRKIQGDGAALQERLCATYRLCHPEELVLLGHSLGIPWAPLSSCPSQALQLAGCLSQLHSGLFLYQGLLKALEGISPELGPTLDTLQLDVADFATTIWQKMEELGMAPALQPTQGAMPAFASAFQRRAGGVLVASHLQSFLEVSYRVLRHLAQP"
–,5 % of hG-CSF,"G-CSF variant K16/34/40R Q158 conjugated to SPA-PEG 5000 (ligand, SPA-PEG 5000 conjugated to the available PEGylation sites) TPLGPASSLPQSFLLRCLEQVRKIQGDGAALQERLCATYRLCHPEELVLLGHSLGIPWAPLSSCPSQALQLAGCLSQLHSGLFLYQGLLQALEGISPELGPTLDTLQLDVADFATTIWQQMEELGMAPALQPTQGAMPAFASAFQRRAGGVLVASHLKSFLEVSYRVLRHLAQP"
